US20090203035A1 (University of California, published 2009)

Target: the molecule itself
Assay: gel filtration (self-association / dimerization check)

B1: mOrange2 (other)
chain: MVSKGEENNMAIIKEFMRFKVRMEGSVNGHEFEIEGEGEGRPYEGFQTAKLKVTKGGPLPFAWDILSPHFTYGSKAYVKHPADIPDYFKLSFPEGFKWERVMNYEDGGVVTVTQDSSLQDGEFIYKVKLRGTNFPSDGPVMQKKTMGWEASSERMYPEDGALKGKIKMRLKLKDGGHYTSEVKTTYKAKKPVQLPGAYIVDIKLDITSHNEDYTIVEQYERAEGRHSTGGMDELYK
notes: Engineered monomeric orange fluorescent protein derived from mOrange (DsRed lineage); also called mOrange Q64H/F99Y/E160K/G196D; not shown: N-terminal 6xHis tag and linker encoded by the pBAD expression vector
binding result: no binding

B2: TagRFP-T (other)
chain: MVSKGEELIKENMHMKLYMEGTVNNHHFKCTSEGEGKPYEGTQTMRIKVVEGGPLPFAFDILATSFMYGSRTFINHTQGIPDFFKQSFPEGFTWERVTTYEDGGVLTATQDTSLQDGCLIYNVKIRGVNFPSNGPVMQKKTLGWEANTEMLYPADGGLEGRTDMALKLVGGGHLICNFKTTYRSKKPAKNLKMPGVYYVDHRLERIKEADKETYVEQHEVAVARYCDLPSKLGHKLNGMDELYK
notes: Engineered fluorescent protein, the S158T variant of TagRFP (eqFP578 lineage); also called TagRFP S158T; not shown: N-terminal 6xHis tag and linker encoded by the pBAD expression vector
binding result: no binding
